Data set [1] deals with T1, Hfq (Pseudomonas aeruginosa, UniProt Q9HUM0 Q9HUM0:1-82). Kind of data set: EMSA; apparent Kd, Hill fit; two cooperative binding sites; 50 mM Tris, 250 mM NH4Cl pH 7.5, tRNA, 37 C; exact value in figure only. The conditions noted are these: tags: His tag (pET28a, TALON purified, anti-His6 used), chain copies: 6 inferred, label: 32P-UTP internal.
Data set [2] has as its target T1, Hfq. Kind of data set: EMSA; apparent Kd, Hill fit; 50 mM Tris, 250 mM NH4Cl pH 7.5, tRNA, 37 C; exact value in figure only. The note with it: tags: His tag (pET28a, TALON purified, anti-His6 used); chain copies: 6 inferred; label: 32P-UTP internal; I-shaped terminator.

T1 sequence (Q9HUM0 whole entry, one chain of several): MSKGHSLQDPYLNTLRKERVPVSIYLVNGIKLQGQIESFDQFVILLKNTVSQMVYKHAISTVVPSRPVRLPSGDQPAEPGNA

B1: AS2779 sRNA (ssRNA)
RNA: GCGAACCCCAAGGGUAUUUCCCGACCAGCUCCCCCGCGGUCGGGAUUUUUUUUUGCCUGUCGCUCAGCGCUUCGGGUCGAAGGGCGAAUAGCCCCGCCGGCGCAGGCUCGCCAGGGGCGCGAACAGCGG
B1: the Kd in the data set with Hfq [1] (I-shaped terminator, canonical terminator in the middle) was less than 150 nM.

B2: IGR2780 sRNA (ssRNA)
RNA: GCUGUACAUCCCUGGAUCCUUUCCCGGCCUGCUCCACGCGGCCGGGAUUUUUUUUGCCC
With B2, in the data set with Hfq [1] (terminator stem-loop with poly(U) stretch), the Kd was less than 150 nM.

B3: AS1974 sRNA (ssRNA)
RNA: GAAUGUUCUUAAAUAUCCUCAAGCGGUUGCGCGGCCAGGCACUGGUCGAGGAGAUGCACCAGGGUGGCCUGUUCCACCGGGGUGAGCGGGGCAAACAACUCGUCAUGCACGCGUGACAUGAUGGCCUC
On to B3, for which the Kd with Hfq [2] is less than 150 nM.

Source of the values: US20210395731, “METHOD AND COMPOSITION FOR INHIBITING GROWTH OF BACTERIUM” (City University of Hong Kong, published 2021).
